Experimental data as given in article PMC8142631.

Experiments:
[1] = target: endogenous EPCR expressed on EA.hy926 cells (human (endogenous in EA.hy926)) (UniProt Q9UNN8); assay: binding to cells, read-out not stated
[2] = target: Soluble wild-type EPCR (endothelial protein C receptor) (UniProt Q9UNN8)
[3] = target: E86A-sEPCR (soluble EPCR variant) (UniProt Q9UNN8); assay: ELISA
[4] = target: Soluble wild-type EPCR (endothelial protein C receptor) (UniProt Q9UNN8); assay: ELISA
[5] = target: endogenous EPCR expressed on EA.hy926 cells (human (endogenous in EA.hy926)) (UniProt Q9UNN8); assay: on-cell western

## recombinant CIDRα1.1 domain derived from FCR3 IT4VAR20 PfEMP1 (domain or fragment)
[1]
  CIDRα1.1 concentration at complete inhibition of APC binding to endothelial EPCR: 100 nM
  IC50: 33 nM
[2]
  CIDRα1.1 concentration at complete inhibition of APC binding to sEPCR: 50 nM
  IC50: 12.5 nM
[3]
  Kd: 4.4 nM
[4]
  Kd: 4.3 nM
[5]
  Kd: 8 nM
